Five molecules from US20260115255A1 (CYTUNE PHARMA, published 2026) can be followed below.

In one experiment the target is T1, FcγRIIIa F158 (human, UniProt P08637 17-208).
T1 construct: Captured on the chip through an anti-His tag antibody; construct not described; also called hFcγRIIIaF158; CD16a F158
The experiment in a line: SPR; ratio of affinity (1/Kd) for FcγRIIIa F158 to affinity for FcγRIIb. The procedure:
(§1) SPR experiments were performed on a Biacore 8K (Cytiva, Chicago, IL, USA), using CM5 sensor chips (Cytiva) with an immobilization using THE His tag antibodies (Genscript). FcγRIIIa V158, FcγRIIIa F158 or FcγRIIb protein were used for capture with a contact time of 30 sec at a flow rate of […] in a 1×HBS-EP+ running buffer. Association/dissociation rates were measured for each tested immunocytokine at a flow rate of 30 μl/min with concentration serial dilution in a suitable range with an association time/dissociation time of 300 s/300 s except for constructs with DLE and DE with and without afucosylation, where association/dissociation time of 120 s/1200 s was applied.
A general note: In SPR one partner is held on a chip, and binding of the other changes the refractive index at the surface.

The target in the next experiment is T2, FcγRIIIa V158 (human, UniProt P08637 17-208).
T2 construct: Captured on the chip through an anti-His tag antibody, so it carries a His tag; construct not described; also called hFcγRIIIaV158; FcγIIIa V158
Description: SPR; ratio of affinity (1/Kd) for FcγRIIIa V158 to affinity for FcγRIIb. Here is the method:
as §1

B1: hCl1a (antibody)
chain 1: not shown
chain 2: DIQMTQSPSSLSASVGDRVTITCRASEDIYSNLAWYQQKPGKAPKLLIFSVKRLQDGVPSRFSGSGSGTDFTLTISSLQPEDFATYYCLQGSNFPLTFGQGTKVEIKRTVAAPSVFIFPPSDEQLKSGTASVVCLLNNFYPREAKVQWKVDNALQSGNSQESVTEQDSKDSTYSLSSTLTLSKADYEKHKVYACEVTHQGLSSPVTKSFNRGEC
For the molecule B1, the “A/I (F158)” value with FcγRIIIa F158 amounted to 20.6. Also, the “A/I (V158)” value with FcγRIIIa V158 was determined as 83.8.

B2: hCl1a AAA-RLI DANA afuc (other)
heavy 1: QVQLVQSGAEVKKPGASVKVSCKASGYTFTDYAMHWVRQAPGQRLEWMGWINTYTGKPTYAQKFQGRVTITRDTSASTAYMELSSLRSEDTAVYYCARAVFYGYTMDAWGQGTLVTVSSASTKGPSVFPLAPSSKSTSGGTAALGCLVKDYFPEPVTVSWNSGALTSGVHTFPAVLQSSGLYSLSSVVTVPSSSLGTQTYICNVNHKPSNTKVDKKVEPKSCDKTHTCPPCPAPELLGGPSVFLFPPKPKDTLMISRTPEVTCVVVDVSHEDPEVKFNWYVDGVEVHNAKTKPREEQYNATYRVVSVLTVLHQDWLNGKEYKCKVSNKALPAPIAATISKAKGQPREPQVYTLPPSRDELTKNQVSLWCLVKGFYPSDIAVEWESNGQPENNYKTTPPVLDSDGSFFLYSKLTVDKSRWQQGNVFSCSVMHEALHNHYTQKSLSLSPGITCPPPMSVEHADIWVKSYSLYSRERYICNSGFKRKAGTSSLTECVLNKATNVAHWTTPSLKCIRDPALVHQRPAPPSGGSGGGGSGGGSGGGGSGGNWVNVISDLKKIEDLIQSMHIDATLYTESDVHPSCKVTAMKCFLLELQVISLESGDASIHATVEALIILANNSLSSNAQVTESGCKECEELEEKNIKEFLQSFVHIVQMFINTS
heavy 2: QVQLVQSGAEVKKPGASVKVSCKASGYTFTDYAMHWVRQAPGQRLEWMGWINTYTGKPTYAQKFQGRVTITRDTSASTAYMELSSLRSEDTAVYYCARAVFYGYTMDAWGQGTLVTVSSASTKGPSVFPLAPSSKSTSGGTAALGCLVKDYFPEPVTVSWNSGALTSGVHTFPAVLQSSGLYSLSSVVTVPSSSLGTQTYICNVNHKPSNTKVDKKVEPKSCDKTHTCPPCPAPELLGGPSVFLFPPKPKDTLMISRTPEVTCVVVDVSHEDPEVKFNWYVDGVEVHNAKTKPREEQYNATYRVVSVLTVLHQDWLNGKEYKCKVSNKALPAPIAATISKAKGQPREPQVYTLPPSRDELTKNQVSLSCAVKGFYPSDIAVEWESNGQPENNYKTTPPVLDSDGSFFLVSKLTVDKSRWQQGNVFSCSVMHEALHNHYTQKSLSLSPG
light: DIQMTQSPSSLSASVGDRVTITCRASEDIYSNLAWYQQKPGKAPKLLIFSVKRLQDGVPSRFSGSGSGTDFTLTISSLQPEDFATYYCLQGSNFPLTFGQGTKVEIKRTVAAPSVFIFPPSDEQLKSGTASVVCLLNNFYPREAKVQWKVDNALQSGNSQESVTEQDSKDSTYSLSSTLTLSKADYEKHKVYACEVTHQGLSSPVTKSFNRGEC
modifications: Afucosylated Fc N-glycan (N297, both heavy chains); the letters cannot carry it.
notes: Same chains as m6, afucosylated; copies: 1 + 1 + 2
With B2, in the experiment with FcγRIIIa F158, the “A/I (F158)” value was 380. Further, the “A/I (V158)” value in the experiment with FcγRIIIa V158 amounted to 1010.

B3: hCl1a DLE-RLI DANA (other)
heavy 1: QVQLVQSGAEVKKPGASVKVSCKASGYTFTDYAMHWVRQAPGQRLEWMGWINTYTGKPTYAQKFQGRVTITRDTSASTAYMELSSLRSEDTAVYYCARAVFYGYTMDAWGQGTLVTVSSASTKGPSVFPLAPSSKSTSGGTAALGCLVKDYFPEPVTVSWNSGALTSGVHTFPAVLQSSGLYSLSSVVTVPSSSLGTQTYICNVNHKPSNTKVDKKVEPKSCDKTHTCPPCPAPELLGGPDVFLFPPKPKDTLMISRTPEVTCVVVDVSHEDPEVKFNWYVDGVEVHNAKTKPREEQYNSTYRVVSVLTVLHQDWLNGKEYKCKVSNKALPLPEEKTISKAKGQPREPQVYTLPPSRDELTKNQVSLWCLVKGFYPSDIAVEWESNGQPENNYKTTPPVLDSDGSFFLYSKLTVDKSRWQQGNVFSCSVMHEALHNHYTQKSLSLSPGITCPPPMSVEHADIWVKSYSLYSRERYICNSGFKRKAGTSSLTECVLNKATNVAHWTTPSLKCIRDPALVHQRPAPPSGGSGGGGSGGGSGGGGSGGNWVNVISDLKKIEDLIQSMHIDATLYTESDVHPSCKVTAMKCFLLELQVISLESGDASIHATVEALIILANNSLSSNAQVTESGCKECEELEEKNIKEFLQSFVHIVQMFINTS
heavy 2: QVQLVQSGAEVKKPGASVKVSCKASGYTFTDYAMHWVRQAPGQRLEWMGWINTYTGKPTYAQKFQGRVTITRDTSASTAYMELSSLRSEDTAVYYCARAVFYGYTMDAWGQGTLVTVSSASTKGPSVFPLAPSSKSTSGGTAALGCLVKDYFPEPVTVSWNSGALTSGVHTFPAVLQSSGLYSLSSVVTVPSSSLGTQTYICNVNHKPSNTKVDKKVEPKSCDKTHTCPPCPAPELLGGPDVFLFPPKPKDTLMISRTPEVTCVVVDVSHEDPEVKFNWYVDGVEVHNAKTKPREEQYNSTYRVVSVLTVLHQDWLNGKEYKCKVSNKALPLPEEKTISKAKGQPREPQVYTLPPSRDELTKNQVSLSCAVKGFYPSDIAVEWESNGQPENNYKTTPPVLDSDGSFFLVSKLTVDKSRWQQGNVFSCSVMHEALHNHYTQKSLSLSPG
light: DIQMTQSPSSLSASVGDRVTITCRASEDIYSNLAWYQQKPGKAPKLLIFSVKRLQDGVPSRFSGSGSGTDFTLTISSLQPEDFATYYCLQGSNFPLTFGQGTKVEIKRTVAAPSVFIFPPSDEQLKSGTASVVCLLNNFYPREAKVQWKVDNALQSGNSQESVTEQDSKDSTYSLSSTLTLSKADYEKHKVYACEVTHQGLSSPVTKSFNRGEC
notes: also called SOT202-DLE-DANA; copies: 1 + 1 + 2
For B3, the “A/I (F158)” value with FcγRIIIa F158 stood at 228. For the same molecule, the “A/I (V158)” value in the experiment with FcγRIIIa V158 is 464.

B4: hCl1a DLE-RLI DANA afuc (other)
heavy 1: QVQLVQSGAEVKKPGASVKVSCKASGYTFTDYAMHWVRQAPGQRLEWMGWINTYTGKPTYAQKFQGRVTITRDTSASTAYMELSSLRSEDTAVYYCARAVFYGYTMDAWGQGTLVTVSSASTKGPSVFPLAPSSKSTSGGTAALGCLVKDYFPEPVTVSWNSGALTSGVHTFPAVLQSSGLYSLSSVVTVPSSSLGTQTYICNVNHKPSNTKVDKKVEPKSCDKTHTCPPCPAPELLGGPDVFLFPPKPKDTLMISRTPEVTCVVVDVSHEDPEVKFNWYVDGVEVHNAKTKPREEQYNSTYRVVSVLTVLHQDWLNGKEYKCKVSNKALPLPEEKTISKAKGQPREPQVYTLPPSRDELTKNQVSLWCLVKGFYPSDIAVEWESNGQPENNYKTTPPVLDSDGSFFLYSKLTVDKSRWQQGNVFSCSVMHEALHNHYTQKSLSLSPGITCPPPMSVEHADIWVKSYSLYSRERYICNSGFKRKAGTSSLTECVLNKATNVAHWTTPSLKCIRDPALVHQRPAPPSGGSGGGGSGGGSGGGGSGGNWVNVISDLKKIEDLIQSMHIDATLYTESDVHPSCKVTAMKCFLLELQVISLESGDASIHATVEALIILANNSLSSNAQVTESGCKECEELEEKNIKEFLQSFVHIVQMFINTS
heavy 2: QVQLVQSGAEVKKPGASVKVSCKASGYTFTDYAMHWVRQAPGQRLEWMGWINTYTGKPTYAQKFQGRVTITRDTSASTAYMELSSLRSEDTAVYYCARAVFYGYTMDAWGQGTLVTVSSASTKGPSVFPLAPSSKSTSGGTAALGCLVKDYFPEPVTVSWNSGALTSGVHTFPAVLQSSGLYSLSSVVTVPSSSLGTQTYICNVNHKPSNTKVDKKVEPKSCDKTHTCPPCPAPELLGGPDVFLFPPKPKDTLMISRTPEVTCVVVDVSHEDPEVKFNWYVDGVEVHNAKTKPREEQYNSTYRVVSVLTVLHQDWLNGKEYKCKVSNKALPLPEEKTISKAKGQPREPQVYTLPPSRDELTKNQVSLSCAVKGFYPSDIAVEWESNGQPENNYKTTPPVLDSDGSFFLVSKLTVDKSRWQQGNVFSCSVMHEALHNHYTQKSLSLSPG
light: DIQMTQSPSSLSASVGDRVTITCRASEDIYSNLAWYQQKPGKAPKLLIFSVKRLQDGVPSRFSGSGSGTDFTLTISSLQPEDFATYYCLQGSNFPLTFGQGTKVEIKRTVAAPSVFIFPPSDEQLKSGTASVVCLLNNFYPREAKVQWKVDNALQSGNSQESVTEQDSKDSTYSLSSTLTLSKADYEKHKVYACEVTHQGLSSPVTKSFNRGEC
modifications: Afucosylated Fc N-glycan (N297, both heavy chains); the letters cannot carry it.
notes: Same chains as m4, afucosylated; copies: 1 + 1 + 2
In the case of B4, in the experiment with FcγRIIIa F158, the “A/I (F158)” value is 9370. In the experiment with FcγRIIIa V158, the “A/I (V158)” value was 13700.

B5: hCl1a AAA-RLI DANA (other)
heavy 1: QVQLVQSGAEVKKPGASVKVSCKASGYTFTDYAMHWVRQAPGQRLEWMGWINTYTGKPTYAQKFQGRVTITRDTSASTAYMELSSLRSEDTAVYYCARAVFYGYTMDAWGQGTLVTVSSASTKGPSVFPLAPSSKSTSGGTAALGCLVKDYFPEPVTVSWNSGALTSGVHTFPAVLQSSGLYSLSSVVTVPSSSLGTQTYICNVNHKPSNTKVDKKVEPKSCDKTHTCPPCPAPELLGGPSVFLFPPKPKDTLMISRTPEVTCVVVDVSHEDPEVKFNWYVDGVEVHNAKTKPREEQYNATYRVVSVLTVLHQDWLNGKEYKCKVSNKALPAPIAATISKAKGQPREPQVYTLPPSRDELTKNQVSLWCLVKGFYPSDIAVEWESNGQPENNYKTTPPVLDSDGSFFLYSKLTVDKSRWQQGNVFSCSVMHEALHNHYTQKSLSLSPGITCPPPMSVEHADIWVKSYSLYSRERYICNSGFKRKAGTSSLTECVLNKATNVAHWTTPSLKCIRDPALVHQRPAPPSGGSGGGGSGGGSGGGGSGGNWVNVISDLKKIEDLIQSMHIDATLYTESDVHPSCKVTAMKCFLLELQVISLESGDASIHATVEALIILANNSLSSNAQVTESGCKECEELEEKNIKEFLQSFVHIVQMFINTS
heavy 2: QVQLVQSGAEVKKPGASVKVSCKASGYTFTDYAMHWVRQAPGQRLEWMGWINTYTGKPTYAQKFQGRVTITRDTSASTAYMELSSLRSEDTAVYYCARAVFYGYTMDAWGQGTLVTVSSASTKGPSVFPLAPSSKSTSGGTAALGCLVKDYFPEPVTVSWNSGALTSGVHTFPAVLQSSGLYSLSSVVTVPSSSLGTQTYICNVNHKPSNTKVDKKVEPKSCDKTHTCPPCPAPELLGGPSVFLFPPKPKDTLMISRTPEVTCVVVDVSHEDPEVKFNWYVDGVEVHNAKTKPREEQYNATYRVVSVLTVLHQDWLNGKEYKCKVSNKALPAPIAATISKAKGQPREPQVYTLPPSRDELTKNQVSLSCAVKGFYPSDIAVEWESNGQPENNYKTTPPVLDSDGSFFLVSKLTVDKSRWQQGNVFSCSVMHEALHNHYTQKSLSLSPG
light: DIQMTQSPSSLSASVGDRVTITCRASEDIYSNLAWYQQKPGKAPKLLIFSVKRLQDGVPSRFSGSGSGTDFTLTISSLQPEDFATYYCLQGSNFPLTFGQGTKVEIKRTVAAPSVFIFPPSDEQLKSGTASVVCLLNNFYPREAKVQWKVDNALQSGNSQESVTEQDSKDSTYSLSSTLTLSKADYEKHKVYACEVTHQGLSSPVTKSFNRGEC
notes: See note of m4; also called SOT202-AAA-DANA; copies: 1 + 1 + 2
Consider B5, for which the “A/I (F158)” value with FcγRIIIa F158 was 244. For the same molecule, the “A/I (V158)” value with FcγRIIIa V158 was 691.
